The text below walks through data of patent publication US7604993B2, “Combined regulation of neural cell production” (Stem Cell Therapeutics Inc., priority 2001, dated 2009).

“Also recorded” adds a separate entry of the source.

Experiment [1] concerns neural stem cells in the subventricular zone. As to the kind of experiment: Subcutaneous administration, number of neural stem cells in the subventricular zone. It counts as in vivo.
A short description of experiment [2]: Forelimb inhibition test in focal ischemic injury (stroke) model. Format: in vivo. The conditions noted are these: rats with focal ischemic injury; first infusion days 1-7, second infusion days 8-14. The source says:
Adult male Long-Evans rats (250-350 g) were obtained from Charles River Breeding Farms and were adapted to the colony for two weeks prior to any treatment. A week before surgery the rats were given a baseline testing on the behavioral tests.
The animals for the stroke study received unilateral devascularization of the sensorimotor cortex. Using Isoflurane anesthesia, the skin was incised and retracted and the overlying fascia were removed from the skull. A skull opening was made at the following coordinates, taking care not to damage the dura: AP +4.0 to −2.0; L 1.5 to 4 (the parasagittal ridge; Kolb et al., 1997). The dura was cut and retracted from the skull opening. A cotton swab soaked in sterile saline was gently rubbed across the exposed pia and the vessels were removed. A hole was then drilled in the contralateral hemisphere to provide an opening for the cannulae attached to the osmotic minipump at AP −0.5; L 1.5. […]
Six days later the animals were assessed using the behavioral test. […]
In normal rats, swimming is accomplished by propulsion from the hind limbs. […] Inhibition of the forelimbs was assessed by filming animals while swimming. […]
The animals then received various test factors, and the effects of these factors on the forelimb inhibition test and brain anatomy were assessed. […]

The test system of experiment [3] is migrating neuronal progenitor cells. As to the kind of experiment: Brain anatomical analysis (Cresyl Violet, Doublecortin) in focal ischemic injury (stroke) model. It counts as in vivo. The settings on record: rats with focal ischemic injury, end of week 6. An excerpt:
The animals for the stroke study received unilateral devascularization of the sensorimotor cortex. Using Isoflurane anesthesia, the skin was incised and retracted and the overlying fascia were removed from the skull. A skull opening was made at the following coordinates, taking care not to damage the dura: AP +4.0 to −2.0; L 1.5 to 4 (the parasagittal ridge; Kolb et al., 1997). The dura was cut and retracted from the skull opening. A cotton swab soaked in sterile saline was gently rubbed across the exposed pia and the vessels were removed. A hole was then drilled in the contralateral hemisphere to provide an opening for the cannulae attached to the osmotic minipump at AP −0.5; L 1.5. An osmotic minipump was placed under the skin between the shoulder blades and a tube connected under the skin to the cannulae, which was attached to the skull with fast-drying cement. Once hemostasis had been achieved the scalp was sutured closed with 5-O sterile suture. The animals were given a single injection of Banamine (an analgesic) and returned to their home cage. Sham animals received only anesthesia, the bone opening, and the skin was incised and sutured. […] The animals then received various test factors, and the effects of these factors on the forelimb inhibition test and brain anatomy were assessed. […]

For experiment [4], the system named is neural stem cells. The experiment is described as follows: BrdU labelling of proliferating cells in infused animals. Format: in vivo, mice. The settings on record: BrdU also given to the infused animals. For orientation: Dividing cells build labelled thymidine or BrdU into new DNA.
Experiment [5] relates to neural stem cells. The experiment is described as follows: Number of EGF-responsive neural stem cells (primary neurospheres) after infusion into the lateral ventricle. Format: in vivo, mice. The source says: Thus, we infused either CNTF or EPO into the lateral ventricles of adult mice for six days, after which we either removed the entire adult ependyma/subependyma to examine the total number of EGF-responsive NSCs or examined the in vivo production of neuronal precursors. […] Therefore, EGF-responsive NSCs turn over continuously in vivo, a sub-population of which spontaneously differentiates into restricted glial precursors, while another sub-population is directed to the neuronal restricted linage by EPO.
The protocols for neural stem cell culture are described in detail in U.S. Pat. No. 5,750,376 or Shingo et al., 2001. Briefly, embryonic neural stem cells were prepared from E14 medial and lateral ganglionic eminences. Adult neural stem cells were prepared from the subventricular zone of adult mice. The tissue was cultured in basal medium containing 20 ng/ml EGF, or other growth factors as indicated in each case, to form neurospheres. The composition of the basal medium is as follows: DMEM/F12 (1:1); glucose (0.6%); glutamine (2 mM); sodium bicarbonate (3 mM); HEPES (5 mM); insulin (25 μg/ml); transferrin (100 μg/ml); progesterone ([…]); putrescine (60 μM); and selenium chloride (30 nM). […]

B1: prolactin: prolactin, first infusion days 1-7, then CSF (Group 3) (protein, UniProt P01236 29-227, looked up)
Prolactin: LPICPGGAARCQVTLRDLFDRAVVLSHYIHNLSSEMFSEFDKRYTHGRGFITKAINSCHTSSLATPEDKEQAQQMNQKDFLSLIVSILRSWNEPLYHLVTEVRGMQEAPEAILSKAVEIEEQTKRLLEGMELIVSQVHPETKENEIYPVWSGLPSLQMADEESRLSAYYNLLHCLRRDSHKIDNYLKLLKCRIIHNNNC
Take B1: the “delivery by subcutaneous administration to modulate the number of neural stem cells in the subventricular zone” value in experiment [1] was “effectively delivered”. In addition, in experiment [2], the “forepaw inhibition / motor function in the forelimb inhibition test” value was “improvement of motor functions; also recorded: acted to correct abnormal positioning of the forelimb during swimming; also recorded: recovery from a representative symptom of stroke; also recorded: improved the motor function”. In addition, the “doublecortin staining / doublecortin positive cells in the brain” value in experiment [3] is “high degree of doublecortin staining”.

B2: CNTF: rat recombinant CNTF, ciliary neurotrophic factor (protein, UniProt P20294 1-200, looked up)
Ciliary neurotrophic factor: MAFAEQTPLTLHRRDLCSRSIWLARKIRSDLTALMESYVKHQGLNKNINLDSVDGVPVASTDRWSEMTEAERLQENLQAYRTFQGMLTKLLEDQRVHFTPTEGDFHQAIHTLMLQVSAFAYQLEELMVLLEQKIPENEADGMPATVGDGGLFEKKLWGLKVLQELSQWTVRSIHDLRVISSHQMGISALESHYGAKDKQM
For the molecule B2, the “number of BrdU positive cells” value in the experiment on neural stem cells [4] is given as “did not increase”. For the same molecule, the “increase of the number of primary neurospheres that can be obtained from the brain” value in the experiment on neural stem cells [5] (infusion into adult mice for six days) is given as “about 25%”. Moreover, in the experiment on neural stem cells [5] (infusion into lateral ventricles of adult mice for six days), the “increase in the number of NSCs” value was 20-25%.
